Laboratory results from the supplement of paper PMC10724198.
± gives the standard deviation of the averaged measurements.

Test system: Saccharomyces cerevisiae
Experiment: protein stability index of tFT-peptide fusion (C-terminal peptide) (PSI (0-1 scale)); higher = more stable (slower turnover)
Details: genetic background: wild type; temperature: 30 C
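Also: PSI is a weighted mean of sequencing reads over stability bins, variants kept only with over 10 reads, mCherry proximal and sfGFP distal, peptide attached via GGGS linker.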

| Sequence | protein stability index |
| --- | --- |
| SSRLLRGGTGFL | 0.722 ± 0.029 |
| NHRETNRNRGKL | 0.75295 ± 0.00072 |
| GRGVQWRAVGWE | 0.748 ± 0.041 |
| PGSCAYHIFRFR | 0.583 ± 0.0062 |
| KKKKEKNKHNIR | 0.72 ± 0.009 |
| PIDYRPEPYALP | 0.775 ± 0.034 |
| CTAVGFISFWMA | 0.629 ± 0.081 |
| FCCVETRRCVRL | 0.717 ± 0.16 |
| VGGRVCQSEGVE | 0.685 ± 0.0058 |
| QSRAQTFGTSIS | 0.668 ± 0.013 |
| PFGTFFFPSFLL | 0.683 ± 0.0032 |
| PPPQTRPPTPTP | 0.741 ± 0.081 |
| ADGLVGLLLSVV | 0.62 ± 0.024 |
| RLTLKKMIKQNV | 0.56 ± 0.016 |
| VPQREWGGVRLG | 0.675 ± 0.017 |
| EWSGWVGKCGRG | 0.6644 ± 0.0059 |
| WWGFGRVCGGGV | 0.774 ± 0.092 |
| SPPLPPTPPVTT | 0.705 ± 0.19 |
| LWVREVVVVGTV | 0.519 ± 0.013 |
| NVEPWTRGMGSA | 0.659 ± 0.02 |
| SPPLSFPTLQLF | 0.625 ± 0.15 |
| GAEAFWAVRGGG | 0.721 ± 0.009 |
| PPLPLPGPDHHL | 0.731 ± 0.087 |
| FGIRGMTSVGSP | 0.675 ± 0.088 |
| LPPPVFPLRLSL | 0.703 ± 0.027 |

| Sequence | protein stability index |
| --- | --- |
| PLPPPPRLPPRH | 0.677 ± 0.04 |
| PPARPLFPLPRL | 0.754 ± 0.077 |
| PPRPPSPAPPPP | 0.687 ± 0.042 |
| TFSFPSPAPHSC | 0.781 ± 0.033 |
| APLSRPLRLPHP | 0.692 ± 0.022 |
| QTHFRPDYALDW | 0.753 ± 0.064 |
| NYHAIANRILAK | 0.6026 ± 0.004 |
| VCDGIIQGNGTI | 0.705 ± 0.021 |
| TGEVSTRVGQRE | 0.66 ± 0.07 |
| PKKGKKKLREKS | 0.728 ± 0.051 |
| SPGSVIVSASLL | 0.651 ± 0.039 |
| PPPAPPSPLLSR | 0.685 ± 0.1 |
| SCAPRSPCTPPP | 0.718 ± 0.015 |
| LLDGGGGGVGEG | 0.765 ± 0.011 |
| PSPSWYGRRLLG | 0.659 ± 0.027 |
| SLLLPPRPPCPP | 0.737 ± 0.024 |
| SEEGMGRCSDEE | 0.731 ± 0.028 |
| FPSFHLCNIPST | 0.757 ± 0.076 |
| PIRPSPPVLPPL | 0.647 ± 0.11 |
| PVVGNPHRIFGV | 0.714 ± 0.028 |
| PPPPPRPLPPLP | 0.695 ± 0.043 |
| GVQFSVWCGSVG | 0.7 ± 0.04 |
| TSDPFGRPPETN | 0.643 ± 0.1 |
| VVSDGARLVWGG | 0.754 ± 0.12 |
| GPCSSMFGLRYT | 0.672 ± 0.033 |

| Sequence | protein stability index |
| --- | --- |
| PLFLPALPPPLP | 0.687 ± 0.11 |
| EGREGVFGEGRA | 0.703 ± 0.031 |
| PEGPTPPSLKLS | 0.6162 ± 0.0052 |
| VWGVRVVCGFTV | 0.533 ± 0.0038 |
| VFRGGGAVGSVR | 0.683 ± 0.043 |
| RVLVRLFGRGKA | 0.688 ± 0.025 |
| LSDSLERVGGAF | 0.701 ± 0.048 |
| VLRPFTPPSSRF | 0.723 ± 0.047 |
| MIFCSPPPLFFP | 0.7 ± 0.0013 |
| LVNSEKFCLSIC | 0.535 ± 0.035 |
| FVGSFYWSGFYV | 0.70213 ± 0.00049 |
| SGGVLSNGRLAA | 0.684 ± 0.052 |
| DFVRVVGDLRWE | 0.587 ± 0.041 |
| VVEPEVCLPSMR | 0.6942 ± 0.0032 |
| FPCVAVFVESNR | 0.647 ± 0.049 |
| EWQAGSDRRFYW | 0.618 ± 0.013 |
| FPSSLPSAFPCP | 0.675 ± 0.016 |
| PSPRPFPPPLPP | 0.6262 ± 0.0022 |
| PLPPPPARLPSP | 0.703 ± 0.017 |
| VLILDVSFPRCD | 0.766 ± 0.18 |
| PLHHPPSPRLPP | 0.617 ± 0.018 |
| SWTEPISNTVLP | 0.77 ± 0.034 |
| VLGVGSFCLGVV | 0.622 ± 0.018 |
